According to the supplement of paper PMC9170038:

Tested on: MS2 coat protein
Assay: apparent KD of MS2 coat protein; designed switch direction (-1 OFF switch, 1 ON switch): -1; higher = weaker reporter binding
Procedure, shortened: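 Three titration conditions were used: no input, 200 uM small-molecule ligand, and an oligonucleotide input. In each, SNAP-549-labelled MS2 coat protein was raised from 0.7 or 1.5 nM, doubling, to 3 µM over designed RNA switches transcribed on Illumina chips by stalled E. coli RNA polymerase. Curve fits of normalised cluster fluorescence gave values whose per-design median over clusters is the apparent KD.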

[1] = Eterna round: R95, input ligand: FMN 200 uM
[2] = Eterna round: R95, input ligand: microRNA oligo, concentration not stated
[3] = Eterna round: R95, input ligand: none
[4] = input ligand: microRNA oligo, concentration not stated

Row | Sequence | apparent KD of MS2 coat protein [1] [nM] | apparent KD of MS2 coat protein [2] [nM] | apparent KD of MS2 coat protein [3] [nM] | apparent KD of MS2 coat protein (input ligand: FMN 200 uM) [nM] | apparent KD of MS2 coat protein [4] [nM] | apparent KD of MS2 coat protein (input ligand: none) [nM]
1 | UAUAAGGUAGGAUAUACGAAUAAAUAGGGUAGAAUAAUAACACAUGAGGAUCACCCAUGUAGAAGGACCAAUAG [Mat - Exclusion 2 - Mod of my Tesla design - D27] (puzzle: Exclusion 2) | 58.9 | 21 | 17.2 |  |  | 
2 | GGGCUGCGACACAGCCAAACAAAACAUGAGGAUCACCCAUGUCAGGAUAUACCGAUGCAGCAUCUGUAGAAGGGACAGAUCCAA [Lalaon] (Eterna round: R96, puzzle: Exclusion NG 3) |  |  |  | 151 | 68.8 | 79.7
3 | UUAACGUCAGGAUAUGCAUAAUAUAUUAUAUUAUAAUAUAUACAUGAGGAUCACCCAUGUAGAAGGGACAUUAU [LRO-Excl2-01-Fireball XL5] (Eterna round: R97, puzzle: Exclusion 2) |  |  |  | 42.7 |  | 29.8
4 | AAUAACAGAGGAUAUACUAUUUUAUGUGUUUGUUAUUUUGAACAUGAGGAUCACCCAUGUAGAAGGCUGAAUGA [JMF 65] (puzzle: Exclusion 2) |  | 24.7 |  |  |  | 
5 | AGCUGUGGCCGAGGAUAUCUAAUAAUCCCAACCGAAAUAUAAUCGGACAUGAGGAUCACCCAUGUAGAGAAGGCGGUCUCAGCA [Eli eng2 - 066] (Eterna round: R96, puzzle: Exclusion NG 2) |  |  |  |  | 96.6 | 
6 | GAGACACAUGAGGAUCACCCAUGUGAGGAUAUCCGAAGGACCAAAUUAAGAAUUAAAGGGAGAAGGCACAUAAA [Exclusion 1 V5] (puzzle: Exclusion 1) |  | 27.2 |  |  |  | 
7 | GCAGCAUAGUUUACUAACUGUUACAUGAGGAUCACCCAUGUUCAGGAUAUGGUCUGGAUUACAGGCCAGAAGGGAGCAAGCUGC [Eli exng3 - 027] (Eterna round: R96, puzzle: Exclusion NG 3) |  |  |  | 13.3 | 10.7 | 13.8
8 | UUUUAACAUGAGGAUCACCCAUGUGAGGAUAUCGAAAUUUAUAUUUAUAUUAAUAUAACGAGAAGGCACAUUUU [JMF 79] (puzzle: Exclusion 1) |  | 58.2 |  |  |  | 
9 | GGAGGAAACGUAGGAUAUUGAAUAAAGCGGAAACGCAAGACAUGAGGAUCACCCAUGUGUCCGGACGAGAAGGGCGAAGAAGAA [AK 1] (Eterna round: R96, puzzle: Exclusion NG 2) |  |  |  | 59.8 | 60.1 | 80.8
10 | GAGAAACAUGAGGAUCACCCAUGUAAGGAUAUGCUGAAAAUCACGGAUUAAUCGUGCAGCAGAAGGUACAAAGG [Mat - Mod of my Eli Mod D42] (puzzle: Exclusion 1) | 142 | 110 | 143 |  |  | 
11 | UGUGGAGCUUAGGAUAUUGCUCUACCAAGAGGGCGAGAAGGGAGCACAUGAGGAUCACCCAUGUGGUCCGGAAC [Edoroner] (puzzle: Exclusion 6) | 26 | 14.7 | 14.6 |  |  | 
12 | GGUUGUUGUUUCCGUUCUUACAUGAGGAUCACCCAUGUUUCUUGUCGUGCUCGCGUUGCUCGUCUGGCUGUCUGUUG [salish99_TOv1_r3_071] (puzzle: Sensor v3, turn-off variant 1) | 52.3 | 40.2 | 67.7 |  |  | 
13 | ACAUGUGUUGUAGGAUAUAGGAGACAUGAGGAUCACCCAUGUUGAUUCAUGUCUAUGGAAACGUCCUAGAAGGACGACAAUAUG [Ex NG2 #19] (Eterna round: R96, puzzle: Exclusion NG 2) |  |  |  | 283 | 179 | 272
14 | CAGCCCUGAGGAUAUCCCUACUUGCACAUGAGGAUCACCCAUGUCCUCCUCCGGGCUUCGGGAGAAGGCAGGUCUC [Megrez-7.5] (Eterna round: R97, puzzle: Exclusion 5) |  |  |  | 23.8 |  | 17
15 | GGAUCAUAUGUCAGGAUAUGCUGGUCCUUGGAUCAGCAGAAGGGACAUGAGGAUCACCCAUGUCAUGAAGAUCC [Eli bmx4 4.79] (Eterna round: R97, puzzle: Brourd's mod of Exclusion 4) |  |  |  | 203 |  | 28.3
16 | GUGUUGCGAGGAUAUAUAAGGGUAUGUUCUUGAGGUAUGGAACAUGAGGAUCACCCAUGUAGAAGGUGCAUAAC [JR_Ex2_Sub045] (Eterna round: R97, puzzle: Exclusion 2) |  |  |  | 507 |  | 247
17 | UCUUUACAUGAGGAUCACCCAUGUCAGGAUAUCAACUUUUGGGACUUCGGAUAUAAGAUGAGAAGGGACACCGG [Eternabot (L2) Solution 53] (Eterna round: R97, puzzle: Exclusion 1) |  |  |  | 19.2 |  | 19.4
18 | GGCAUAAUGUAGGAUAUCGUAAUGGAAACAUUACGAGAAGGGCAAACAUGAGGAUCACCCAUGUUCCUUAAGCC [Mat - Exclusion 6 - Eli Mod - D70] (puzzle: Exclusion 6) | 18.7 | 14.2 | 15.4 |  |  | 

Row | Sequence | apparent KD of MS2 coat protein [1] [nM] | apparent KD of MS2 coat protein [2] [nM] | apparent KD of MS2 coat protein [3] [nM] | apparent KD of MS2 coat protein (input ligand: FMN 200 uM) [nM] | apparent KD of MS2 coat protein [4] [nM] | apparent KD of MS2 coat protein (input ligand: none) [nM]
19 | CCAAGCUUCUUCAUUAUCCACAUGAGGAUCACCCAUGUCUUGGCAAUUAUGACCUGCCCGUCAGGAGCUCGUCUUAU [Sensor-V1 #38] (Eterna round: R97, puzzle: Sensor, turn-off variant 1) |  |  |  | 806 |  | 951
20 | GUACUGACAGGAUAUACAUGAGGAUCACCCAUGUGCCUUAAUGCUACAAAAGUAGCAAGUAGAAGGGUCUGUAC [Omei Ex3 Model Bachelor's Dilema v11] (Eterna round: R97, puzzle: Exclusion 3) |  |  |  | 79.7 |  | 16.5
21 | AAUGAGCAAGUCAGGAUAUUAAGCCACAGCUGGCGUAAGAAGGGACAUGAGGAUCACCCAUGUUCAUCCAAUGG [Eternabot (Original) Solution 15] (Eterna round: R97, puzzle: Brourd's mod of Exclusion 4) |  |  |  | 24.5 |  | 15.9
22 | AACCUCGUAGCAGGAUAUUAGAGCUCCCGCAAAUGAGAAGGGCUACGAAACACUUGAGGAUCACCCAAGUACCGUGGUCCUCUA [Mutated MS2 EX1.8] (Eterna round: R96, puzzle: Exclusion NG 1) |  |  |  | 12.7 | 17.6 | 20.7
23 | AAUAGACAUGAGGAUCACCCAUGUCAGGAUAUUUCGAGUAAGGUGGGCCUAGAAUUGGGAAGAAGGGACCUGGA [Eternabot (L1) Solution 29] (Eterna round: R97, puzzle: Exclusion 1) |  |  |  | 17.7 |  | 21.3
24 | GAGUGACAUGAGGAUCACCCAUGUGAGGAUAUCGGACGGACCAAAUUAACAACCGCCGCGAGAAGGCACAUCGG [Exclusion 1 V21] (puzzle: Exclusion 1) | 130 | 144 | 129 |  |  | 
25 | CGGAUGUAAGGAUAUUAGUAGUAGUCAGAAUAGACUAUUACUGAGAAGGUACAUGAGGAUCACCCAUGUUUCCG [Eli x4 4.18] (Eterna round: R97, puzzle: Exclusion 4) |  |  |  | 27.5 |  | 16.8
26 | CAGUACUGAGGAUAUACAUGAGGAUCACCCAUGUGUUCCAGCUAGGAAACUAGCAUAAGUAGAAGGCAGUACUG [salish99_ex3_r3_091x] (puzzle: Exclusion 3) |  | 21.8 |  |  |  | 
27 | UAUAUAUAGUAAGGAUAUGUAAUUAUUUUAGAAACAGAAGGUACUGACAUGAGGAUCACCCAUGUUUUAGUGUGGGCAUGUAGA [JMF's solution 45] (Eterna round: R96, puzzle: Exclusion NG 1) |  |  |  |  | 69.9 | 
28 | UGAAAGUGAGGAUAUCCAAUAUAUGACAUGAGGAUCACCCAUGUUUCCACUCGUACCUCCGGAGAAGGCACAAGGU [Ex5 #57] (Eterna round: R97, puzzle: Exclusion 5) |  |  |  | 25.5 |  | 29.4
29 | AGAUAGUGGUGAGGAUAUCAGAAUAGAAAGAAAUGAGAAGGCGCACAUGAGGAUCACCCAUGUGAGGUCUUGAGACUACAUGGU [Prohibition 39 - Jieux - Exclusion NG 1] (Eterna round: R96, puzzle: Exclusion NG 1) |  |  |  |  | 15.7 | 
30 | GCUAGAGCAGGAUAUCUAGAUCCACACAUGAGGAUCACCCAUGUAUAGUCGAAAGACUAAAGAGAAGGGCUCUAGC [Omei Ex5 E14] (Eterna round: R97, puzzle: Exclusion 5) |  |  |  | 72.7 |  | 61.8
31 | CGGAGCAGAGGGAGAUCCAACAUGAGGAUCACCCAUGUCUCACAAGCUUUUUGCUCAUCUUAUUGUACCUUGGUGCU [JL ViennaUCT Edcesobi mod 6] (puzzle: Sensor v3, turn-off variant 1) | 40.5 | 10.1 | 46.8 |  |  | 
32 | UCGCUGCGAGGAUAUACGUGCGCGCGCGCGCGCGCGCGCGUACAUGAGGAUCACCCAUGUAGAAGGCGCGCUGC [Apr-15 SS2-1] (puzzle: Exclusion 2) |  | 12.5 |  |  |  | 
33 | AGUGGUAGUAUCCGAUCCUACAUGAGGAUCACCCAUGUAGCUAGACGUGCACGCGAUGCUCGUCAGACUACCAGAUG [salish99_TOv1_r3_040] (puzzle: Sensor v3, turn-off variant 1) | 16.5 | 14.1 | 18.1 |  |  | 
34 | CCUCAGUAAGGAUAUCAGCUUAAGGAGGUGGUAAAGAGAGCUGAGAAGGUACAUGAGGAUCACCCAUGUUAAAA [Zatite] (puzzle: Exclusion 4) | 64.4 | 44.9 | 50.2 |  |  | 
35 | GAAAACGAAGAGGAUAUAUGAUAUCAAAGCUUCAUAGAAGGCUUCACAUGAGGAUCACCCAUGUGAUCUUCAAA [jl-ex6-4.07 ViennaUCT mod] (Eterna round: R97, puzzle: Exclusion 6) |  |  |  | 262 |  | 37.9
